Target: T1, NRF2-His (his-tag mouse NRF2) (mouse, UniProt Q60795 1-597)
T1 sequence (looked up): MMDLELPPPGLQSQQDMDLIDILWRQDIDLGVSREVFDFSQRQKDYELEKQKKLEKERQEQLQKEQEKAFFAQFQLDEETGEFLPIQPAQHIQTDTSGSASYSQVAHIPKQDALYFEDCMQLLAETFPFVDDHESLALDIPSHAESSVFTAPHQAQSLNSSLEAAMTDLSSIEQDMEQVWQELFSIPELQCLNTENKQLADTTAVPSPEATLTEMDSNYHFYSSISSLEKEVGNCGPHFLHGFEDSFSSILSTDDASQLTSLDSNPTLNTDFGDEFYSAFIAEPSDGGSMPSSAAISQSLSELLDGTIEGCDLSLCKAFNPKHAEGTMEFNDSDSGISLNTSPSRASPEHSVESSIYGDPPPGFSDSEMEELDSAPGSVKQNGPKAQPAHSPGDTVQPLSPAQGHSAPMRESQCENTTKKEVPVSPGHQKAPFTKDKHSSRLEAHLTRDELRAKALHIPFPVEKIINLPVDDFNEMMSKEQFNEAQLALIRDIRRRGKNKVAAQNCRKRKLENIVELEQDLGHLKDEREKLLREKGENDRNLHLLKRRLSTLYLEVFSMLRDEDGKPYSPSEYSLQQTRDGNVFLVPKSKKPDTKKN
Assay: pull-down

B1: p53R245W-Flag (natural protein, mouse, UniProt P02340 1-390, looked up)
chain: MTAMEESQSDISLELPLSQETFSGLWKLLPPEDILPSPHCMDDLLLPQDVEEFFEGPSEALRVSGAPAAQDPVTETPGPVAPAPATPWPLSSFVPSQKTYQGNYGFHLGFLQSGTAKSVMCTYSPPLNKLFCQLAKTCPVQLWVSATPPAGSRVRAMAIYKKSQHMTEVVRRCPHHERCSDGDGLAPPQHLIRVEGNLYPEYLEDRQTFRHSVVVPYEPPEAGSEYTTIHYKYMCNSSCMGGMNWRPILTIITLEDSSGNLLGRDSFEVRVCACPGRDRRTEEENFRKKEVLCPELPPGSAKRALPTCTSASPPQKKKPLDGEYFTLKIRGRKRFEMFRELNEALELKDAHATEESGDSRAHSSYLKTKKGQSTSRHKKTMVKKVGPDSD
- binding result: binds

Reference: article PMC10866549 (Science Advances, 2024)
